What was measured:
[1] = target: T1, CD28 on primary human T cells (human, UniProt P10747 19-220); test: cell-based or functional assay
[2] = target: T2, Recombinant human/cynomolgus/rhesus macaque CD28 mouse IgG2a Fc fusion protein (Acro Biosystems) (human/cynomolgus/rhesus macaque, UniProt P10747 19-152); test: SPR, in-format anti-CD28 variants, huCD28
T2 construct: bought; also called huCD28

[3] = target: T1, CD28 on primary human T cells; test: cell-based or functional assay; remark: listed apart in the source

Binder	IC50, T cell-dependent cytotoxicity on SNU 601 [1] [pM]	Maximum Killing (%), SNU 601 [1] [%]	Fold-change from WT [2] [fold]	Kd [2] [nM]	koff [2] [s⁻¹]	kon [2] [M⁻¹ s⁻¹]	IL-2 maximum cytokine, T cells alone [3] [pg/mL]	IL-2 maximum cytokine, T cells with SNU 601 cells [3] [pg/mL]	TNFa maximum cytokine, T cells alone [3] [pg/mL]	TNFa maximum cytokine, T cells with SNU 601 cells [3] [pg/mL]
v37687 (trispecific antibody, human IgG1, kappa, L234A L235A, also called v37638 format, CD28 VH E1080K) heavy 1: not shown heavy 2: QVQLVESGGGLVQPGGSLRLSCSVSGIDLSSNPMIWVRQAPGKGLQYIGIIDTDGSTYYADWAKGRFTISKDSTTVYLQINSPRAEDTAVYYCARRLHGSSNGYYDDLWGQGTLVTVSSGGGGSGGGGSGGGGSGGGGSDGQMTQSPSSVSASVGDRVTITCQASQSIYSYLSWYQQKPGQRPKLLIYKASTLASGVPSRFSGSGSGTDFTLTISSVQPEDFATYYCQQGYTVTNVDKNTFGGGTKVEIKAAEPKSSDKTHTCPPCPAPEAAGGPSVFLFPPKPKDTLMISRTPEVTCVVVSVSHEDPEVKFNWYVDGVEVHNAKTKPREEQYNSTYRVVSVLTVLHQDWLNGKEYKCKVSNKALPAPIEKTISKAKGQPREPQVYVLPPSRDELTKNQVSLLCLVKGFYPSDIAVEWESNGQPENNYLTWPPVLDSDGSFFLYSKLTVDKSRWQQGNVFSCSVMHEALHNHYTQKSLSLSPG light: DIQMTQSPSSLSASVGDRVTITCRASESVEYYVTSLMQWYQQKPGKAPKLLIYAASNVDSGVPSRFSGSGSGTDFTLTISSLQPEDIATYYCQQSRKVPFTFGGGTKVEIKRTVAAPSVFIFPPSDEQLKSGTASVVCLLNNFYPREAKVQWKVDNALQSGNSQESVTEQDSKDSTYSLSSTLTLSKADYEKHKVYACEVTHQGLSSPVTKSFNRGEC	0.1	88.5	2.1	47	0.00475	101000	170	4140	21.7	412
v37692 (trispecific antibody, human IgG1, kappa, L234A L235A, also called v37638 format, CD28 VH Y1113S) heavy 1: not shown heavy 2: QVQLVESGGGLVQPGGSLRLSCSVSGIDLSSNPMIWVRQAPGKGLQYIGIIDTDGSTYYADWAKGRFTISKDSTTVYLQINSPRAEDTAVYYCARRLHGSSNGYYDDLWGQGTLVTVSSGGGGSGGGGSGGGGSGGGGSDGQMTQSPSSVSASVGDRVTITCQASQSIYSYLSWYQQKPGQRPKLLIYKASTLASGVPSRFSGSGSGTDFTLTISSVQPEDFATYYCQQGYTVTNVDKNTFGGGTKVEIKAAEPKSSDKTHTCPPCPAPEAAGGPSVFLFPPKPKDTLMISRTPEVTCVVVSVSHEDPEVKFNWYVDGVEVHNAKTKPREEQYNSTYRVVSVLTVLHQDWLNGKEYKCKVSNKALPAPIEKTISKAKGQPREPQVYVLPPSRDELTKNQVSLLCLVKGFYPSDIAVEWESNGQPENNYLTWPPVLDSDGSFFLYSKLTVDKSRWQQGNVFSCSVMHEALHNHYTQKSLSLSPG light: DIQMTQSPSSLSASVGDRVTITCRASESVEYYVTSLMQWYQQKPGKAPKLLIYAASNVDSGVPSRFSGSGSGTDFTLTISSLQPEDIATYYCQQSRKVPFTFGGGTKVEIKRTVAAPSVFIFPPSDEQLKSGTASVVCLLNNFYPREAKVQWKVDNALQSGNSQESVTEQDSKDSTYSLSSTLTLSKADYEKHKVYACEVTHQGLSSPVTKSFNRGEC	0.63	91.5	95.1	2110	0.0613	32200	120	2890	20.2	476
v37689 (trispecific antibody, human IgG1, kappa, L234A L235A, also called v37638 format, CD28 VH N1111aA) heavy 1: not shown heavy 2: QVQLVESGGGLVQPGGSLRLSCSVSGIDLSSNPMIWVRQAPGKGLQYIGIIDTDGSTYYADWAKGRFTISKDSTTVYLQINSPRAEDTAVYYCARRLHGSSNGYYDDLWGQGTLVTVSSGGGGSGGGGSGGGGSGGGGSDGQMTQSPSSVSASVGDRVTITCQASQSIYSYLSWYQQKPGQRPKLLIYKASTLASGVPSRFSGSGSGTDFTLTISSVQPEDFATYYCQQGYTVTNVDKNTFGGGTKVEIKAAEPKSSDKTHTCPPCPAPEAAGGPSVFLFPPKPKDTLMISRTPEVTCVVVSVSHEDPEVKFNWYVDGVEVHNAKTKPREEQYNSTYRVVSVLTVLHQDWLNGKEYKCKVSNKALPAPIEKTISKAKGQPREPQVYVLPPSRDELTKNQVSLLCLVKGFYPSDIAVEWESNGQPENNYLTWPPVLDSDGSFFLYSKLTVDKSRWQQGNVFSCSVMHEALHNHYTQKSLSLSPG light: DIQMTQSPSSLSASVGDRVTITCRASESVEYYVTSLMQWYQQKPGKAPKLLIYAASNVDSGVPSRFSGSGSGTDFTLTISSLQPEDIATYYCQQSRKVPFTFGGGTKVEIKRTVAAPSVFIFPPSDEQLKSGTASVVCLLNNFYPREAKVQWKVDNALQSGNSQESVTEQDSKDSTYSLSSTLTLSKADYEKHKVYACEVTHQGLSSPVTKSFNRGEC	0.12	93.4	10.8	239	0.0211	89600	677	3210	58.9	543
v37691 (trispecific antibody, human IgG1, kappa, L234A L235A, also called v37638 format, CD28 VH L1112aN) heavy 1: not shown heavy 2: QVQLVESGGGLVQPGGSLRLSCSVSGIDLSSNPMIWVRQAPGKGLQYIGIIDTDGSTYYADWAKGRFTISKDSTTVYLQINSPRAEDTAVYYCARRLHGSSNGYYDDLWGQGTLVTVSSGGGGSGGGGSGGGGSGGGGSDGQMTQSPSSVSASVGDRVTITCQASQSIYSYLSWYQQKPGQRPKLLIYKASTLASGVPSRFSGSGSGTDFTLTISSVQPEDFATYYCQQGYTVTNVDKNTFGGGTKVEIKAAEPKSSDKTHTCPPCPAPEAAGGPSVFLFPPKPKDTLMISRTPEVTCVVVSVSHEDPEVKFNWYVDGVEVHNAKTKPREEQYNSTYRVVSVLTVLHQDWLNGKEYKCKVSNKALPAPIEKTISKAKGQPREPQVYVLPPSRDELTKNQVSLLCLVKGFYPSDIAVEWESNGQPENNYLTWPPVLDSDGSFFLYSKLTVDKSRWQQGNVFSCSVMHEALHNHYTQKSLSLSPG light: DIQMTQSPSSLSASVGDRVTITCRASESVEYYVTSLMQWYQQKPGKAPKLLIYAASNVDSGVPSRFSGSGSGTDFTLTISSLQPEDIATYYCQQSRKVPFTFGGGTKVEIKRTVAAPSVFIFPPSDEQLKSGTASVVCLLNNFYPREAKVQWKVDNALQSGNSQESVTEQDSKDSTYSLSSTLTLSKADYEKHKVYACEVTHQGLSSPVTKSFNRGEC	0.08	91	4.9	109	0.0107	98600	185	3360	33.6	473
v37693 (trispecific antibody, human IgG1, kappa, L234A L235A, also called v37638 format, CD28 VH Y1037A) heavy 1: not shown heavy 2: QVQLVESGGGLVQPGGSLRLSCSVSGIDLSSNPMIWVRQAPGKGLQYIGIIDTDGSTYYADWAKGRFTISKDSTTVYLQINSPRAEDTAVYYCARRLHGSSNGYYDDLWGQGTLVTVSSGGGGSGGGGSGGGGSGGGGSDGQMTQSPSSVSASVGDRVTITCQASQSIYSYLSWYQQKPGQRPKLLIYKASTLASGVPSRFSGSGSGTDFTLTISSVQPEDFATYYCQQGYTVTNVDKNTFGGGTKVEIKAAEPKSSDKTHTCPPCPAPEAAGGPSVFLFPPKPKDTLMISRTPEVTCVVVSVSHEDPEVKFNWYVDGVEVHNAKTKPREEQYNSTYRVVSVLTVLHQDWLNGKEYKCKVSNKALPAPIEKTISKAKGQPREPQVYVLPPSRDELTKNQVSLLCLVKGFYPSDIAVEWESNGQPENNYLTWPPVLDSDGSFFLYSKLTVDKSRWQQGNVFSCSVMHEALHNHYTQKSLSLSPG light: DIQMTQSPSSLSASVGDRVTITCRASESVEYYVTSLMQWYQQKPGKAPKLLIYAASNVDSGVPSRFSGSGSGTDFTLTISSLQPEDIATYYCQQSRKVPFTFGGGTKVEIKRTVAAPSVFIFPPSDEQLKSGTASVVCLLNNFYPREAKVQWKVDNALQSGNSQESVTEQDSKDSTYSLSSTLTLSKADYEKHKVYACEVTHQGLSSPVTKSFNRGEC	0.13	95.3	4.1	91.8	0.00968	106000	104	3600	19.7	453
v37688 (trispecific antibody, human IgG1, kappa, L234A L235A, also called v37638 format, CD28 VH Y1110S) heavy 1: not shown heavy 2: QVQLVESGGGLVQPGGSLRLSCSVSGIDLSSNPMIWVRQAPGKGLQYIGIIDTDGSTYYADWAKGRFTISKDSTTVYLQINSPRAEDTAVYYCARRLHGSSNGYYDDLWGQGTLVTVSSGGGGSGGGGSGGGGSGGGGSDGQMTQSPSSVSASVGDRVTITCQASQSIYSYLSWYQQKPGQRPKLLIYKASTLASGVPSRFSGSGSGTDFTLTISSVQPEDFATYYCQQGYTVTNVDKNTFGGGTKVEIKAAEPKSSDKTHTCPPCPAPEAAGGPSVFLFPPKPKDTLMISRTPEVTCVVVSVSHEDPEVKFNWYVDGVEVHNAKTKPREEQYNSTYRVVSVLTVLHQDWLNGKEYKCKVSNKALPAPIEKTISKAKGQPREPQVYVLPPSRDELTKNQVSLLCLVKGFYPSDIAVEWESNGQPENNYLTWPPVLDSDGSFFLYSKLTVDKSRWQQGNVFSCSVMHEALHNHYTQKSLSLSPG light: DIQMTQSPSSLSASVGDRVTITCRASESVEYYVTSLMQWYQQKPGKAPKLLIYAASNVDSGVPSRFSGSGSGTDFTLTISSLQPEDIATYYCQQSRKVPFTFGGGTKVEIKRTVAAPSVFIFPPSDEQLKSGTASVVCLLNNFYPREAKVQWKVDNALQSGNSQESVTEQDSKDSTYSLSSTLTLSKADYEKHKVYACEVTHQGLSSPVTKSFNRGEC	0.18	87.8	1.2	25.8	0.00253	97300	279	3780	39.6	514
